In patent US20260234234A1 (QILU PUGET SOUND BIOTHERAPEUTICS, published 2026):
Values belong to the binder of their own block, whether it stands above or below them.

Tests used:
[1] = target: T1, His6-tagged cyIL-33 (Ser112-Ile270), QB10976 (cynomolgus monkey); experiment: SPR, Biacore T200
T1 construct: Entry includes N-terminal Avitag, FLAG and His6 tags; isoform X1, NCBI XP_005581824; also called cyIL-33 antigen
T1 chain: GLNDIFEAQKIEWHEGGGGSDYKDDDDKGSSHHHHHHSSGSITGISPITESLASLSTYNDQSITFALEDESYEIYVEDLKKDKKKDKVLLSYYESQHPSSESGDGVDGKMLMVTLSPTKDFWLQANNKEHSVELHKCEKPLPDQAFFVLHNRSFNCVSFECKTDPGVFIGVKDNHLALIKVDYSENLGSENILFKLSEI

[2] = target: T2, Avitag_c-MYC_His6-tagged hIL-33 (Ser112-Thr270), QB10975 (human); experiment: SPR competition, antibody titrated against 10 nM hIL-33, over immobilised hST2-Fc
T2 construct: Entry includes N-terminal Avitag, c-MYC and His6 tags; reduced with DTT to the active form; also called active hIL-33; reduced hIL-33
T2 chain: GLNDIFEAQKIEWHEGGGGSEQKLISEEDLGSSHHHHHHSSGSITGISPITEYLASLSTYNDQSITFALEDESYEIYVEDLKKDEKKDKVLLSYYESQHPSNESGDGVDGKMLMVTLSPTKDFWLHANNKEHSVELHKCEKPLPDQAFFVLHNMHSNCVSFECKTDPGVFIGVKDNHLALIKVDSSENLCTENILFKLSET

[3] = target: T2, Avitag_c-MYC_His6-tagged hIL-33 …; experiment: SPR (Biacore) blocking: mAb premixed with 10 nM hIL-33, flowed over ST2-Fc on a CM5 chip; blocked partner ST2-Fc
[4] = target: Avitag_c-MYC_His6_hTSLP (wild type) QB11630 (human); experiment: cell-based or functional assay
[5] = target: T3, Avitag_c-MYC_His6_hTSLP QB11631 with mutations of R127A + R130S (human); experiment: cell-based or functional assay
[6] = target: Avitag_c-MYC_His6_hTSLP (wild type) QB11630 (human); experiment: cell-based or functional assay; remark: listed apart in the source
[7] = target: T3, Avitag_c-MYC_His6_hTSLP QB11631 with …; experiment: cell-based or functional assay; remark: listed apart in the source
[8] = target: T4, Avitag_FLAG_His6_cyTSLP QB11632 (wild type) (cynomolgus monkey); experiment: cell-based or functional assay
T4 chain: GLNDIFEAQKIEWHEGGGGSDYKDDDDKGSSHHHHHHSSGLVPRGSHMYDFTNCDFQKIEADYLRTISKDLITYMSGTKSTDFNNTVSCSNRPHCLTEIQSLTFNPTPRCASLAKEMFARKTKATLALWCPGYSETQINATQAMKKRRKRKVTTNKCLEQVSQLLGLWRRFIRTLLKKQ

[9] = target: T5, Avitag_FLAG_His6_cyTSLP QB11633 with mutations of R127A + R130S (cynomolgus monkey); experiment: cell-based or functional assay
T5 chain: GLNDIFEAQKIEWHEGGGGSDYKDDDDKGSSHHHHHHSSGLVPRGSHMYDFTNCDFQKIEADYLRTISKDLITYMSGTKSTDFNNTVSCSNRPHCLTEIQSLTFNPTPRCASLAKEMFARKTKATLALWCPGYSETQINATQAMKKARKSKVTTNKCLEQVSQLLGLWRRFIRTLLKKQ

[10] = target: T6, native hTSLP derived from human Small Airway Epithelial Cells (healthy donor 1 and donor 2) (human, UniProt Q969D9 29-159, limits assumed); experiment: cell-based or functional assay
[11] = target: T6, native hTSLP derived from human Small …; experiment: cell-based or functional assay; remark: listed apart in the source
[12] = target: Avitag_c-MYC_His6_hTSLP (wild type) QB11630 (human); experiment: cell-based or functional assay; remark: listed apart in the source
[13] = target: T3, Avitag_c-MYC_His6_hTSLP QB11631 with …; experiment: cell-based or functional assay; remark: listed apart in the source
[14] = target: T4, Avitag_FLAG_His6_cyTSLP QB11632 (wild …); experiment: cell-based or functional assay
[15] = target: Avitag_c-MYC_His6_hTSLP (wild type) QB11630 (human); experiment: cell-based or functional assay; remark: listed apart in the source
[16] = target: T3, Avitag_c-MYC_His6_hTSLP QB11631 with …; experiment: cell-based or functional assay; remark: listed apart in the source
[17] = target: T4, Avitag_FLAG_His6_cyTSLP QB11632 (wild …); experiment: cell-based or functional assay
[18] = target: Avitag_c-MYC_His6_hTSLP (wild type) QB11630 (human); experiment: cell-based or functional assay; remark: listed apart in the source
[19] = target: T3, Avitag_c-MYC_His6_hTSLP QB11631 with …; experiment: cell-based or functional assay; remark: listed apart in the source
[20] = target: T4, Avitag_FLAG_His6_cyTSLP QB11632 (wild …); experiment: cell-based or functional assay
[21] = target: T7, Avitag_c-MYC_His6_hTSLP (wild type) QB11630 (human); experiment: SPR, captured antibody, monomeric TSLP analyte, 25 C, 1:1 Langmuir fit
T7 construct: N-terminal tags are part of the entry; also called in-house hTSLP native antigen QB11630

[22] = target: T3, Avitag_c-MYC_His6_hTSLP QB11631 with …; experiment: as above
[23] = target: hTSLP, R&D Systems 1398-TS-010 (E. coli) (human, UniProt Q969D9 29-159, limits assumed); experiment: as above
[24] = target: T8, hTSLP, ACRO Biosystems TSP-H52Hb (HEK293) (human, UniProt Q969D9 29-159, limits assumed); experiment: as above
T8 construct: also called Acro-WT

[25] = target: T4, Avitag_FLAG_His6_cyTSLP QB11632 (wild …); experiment: as above
[26] = target: T5, Avitag_FLAG_His6_cyTSLP QB11633 with …; experiment: as above
[27] = target: T9, cyTSLP, ACRO Biosystems TSP-C52H8 (HEK293) (cynomolgus monkey, UniProt A0A7N9CAT7 29-159); experiment: as above
T9 construct: also called Acro WT

[28] = target: T10, cyTSLP (R127A, R130S), ACRO Biosystems TSP-C52H4 (HEK293) (cynomolgus monkey, UniProt A0A7N9CAT7 29-159); experiment: as above
T10 construct: also called Acro-RA-RS

[29] = target: T11, cyTSLP (R127A, R130S), Sino Biological 90911-C08H-100 (HEK293) (cynomolgus monkey, UniProt A0A7N9CAT7 29-159); experiment: as above
T11 construct: also called Sino-RA-RS

[30] = target: T7, Avitag_c-MYC_His6_hTSLP (wild type) …; experiment: SPR, in-house hTSLP QB11630 analyte

binding result [1]: binds
IC50 [2]: 1.5 nM
IC50 [3]: 1.01 nM
B1: chimeric anti-hIL-33 antibody QB10998 (antibody, human IgG1, kappa, V domains shown)
VH: EVMLVESGGGLVKPGGSLKLSCAASGFTFYSSAMSWVRQTPEKRLEWVATISSGGSNTYYPDSVKGRFTISRDNAKNTLYLQMSSLGSEDTAMYYCASAYYGRRYDAMDYWGQGTSVTVSS
VL: DIVMTQAAPSIPVTPGESVSISCKSSKSLLHSNGNTYLYWFLQRPGQSPQLLIYRMSNLASGVPDRFSGSGSGTAFTLRISRVEAEDVGVYYCMQHLENPYTFGGGTKLELNR
notes: Text says murine VH on human IgG4 constant regions; the printed HC entry looks like IgG1; also called chimeric antibody

IC50, inhibition of hTSLP-induced IL-5 secretion from human ILC2s [4]: 0.1 nM
IC50, inhibition of hTSLP-induced IL-5 secretion from human ILC2s [5]: 0.35 nM
IC50, inhibition of TSLP-induced proliferation of BaF3 cells expressing hTSLPR/hIL-7Rα (CellTiter-Glo, RLU); stimulus hTSLP QB11630 [6]: 0.0058 nM
IC50, inhibition of TSLP-induced proliferation of BaF3 cells expressing hTSLPR/hIL-7Rα (CellTiter-Glo, RLU); stimulus hTSLP QB11631 [7]: 0.012 nM
IC50, inhibition of TSLP-induced proliferation of BaF3 cells expressing hTSLPR/hIL-7Rα (CellTiter-Glo, RLU); stimulus cyTSLP QB11632 [8]: 0.012 nM
IC50, inhibition of TSLP-induced proliferation of BaF3 cells expressing hTSLPR/hIL-7Rα (CellTiter-Glo, RLU); stimulus cyTSLP QB11633 [9]: 0.0022 nM
IC50, inhibition of TSLP-induced proliferation of BaF3 cells expressing hTSLPR/hIL-7Rα (CellTiter-Glo, RLU); stimulus native hTSLP from healthy donor 1 [10]: 0.0014 nM
IC50, inhibition of TSLP-induced proliferation of BaF3 cells expressing hTSLPR/hIL-7Rα (CellTiter-Glo, RLU); stimulus native hTSLP from healthy donor 2 [11]: 0.0018 nM
IC50, inhibition of TSLP-induced pSTAT5 (AlphaLISA, MFI) in BaF3 cells expressing hTSLPR/hIL-7Rα; stimulus hTSLP QB11630 [12]: 1.7 nM
IC50, inhibition of TSLP-induced pSTAT5 (AlphaLISA, MFI) in BaF3 cells expressing hTSLPR/hIL-7Rα; stimulus hTSLP QB11631 [13]: 0.78 nM
IC50, inhibition of TSLP-induced pSTAT5 (AlphaLISA, MFI) in BaF3 cells expressing hTSLPR/hIL-7Rα; stimulus cyTSLP QB11632 [14]: 0.28 nM
IC50, inhibition of TSLP-induced CCL17 release from primary human monocytes (ELISA, pg/mL); stimulus hTSLP QB11630 [15]: 0.0045 nM
IC50, inhibition of TSLP-induced CCL17 release from primary human monocytes (ELISA, pg/mL); stimulus hTSLP QB11631 [16]: 0.0013 nM
IC50, inhibition of TSLP-induced CCL17 release from primary human monocytes (ELISA, pg/mL); stimulus cyTSLP QB11632 [17]: 0.0027 nM
IC50, inhibition of TSLP-induced pSTAT5 (AlphaLISA, MFI) in cultured primary human ILC2 cells; stimulus hTSLP QB11630 [18]: 1.5 nM
IC50, inhibition of TSLP-induced pSTAT5 (AlphaLISA, MFI) in cultured primary human ILC2 cells; stimulus hTSLP QB11631 [19]: 3.1 nM
IC50, inhibition of TSLP-induced pSTAT5 (AlphaLISA, MFI) in cultured primary human ILC2 cells; stimulus cyTSLP QB11632 [20]: 0.46 nM
Kd [21]: 0.0778 nM
Kd [22]: 0.0163 nM
Kd [23]: 0.00502 nM
Kd [24]: 0.0118 nM
Kd [25]: 0.831 nM
Kd [26]: 0.075 nM
Kd [27]: 0.0295 nM
Kd [28]: 0.0263 nM
Kd [29]: 0.0187 nM
B2: anti-hTSLP IgG1-D265A antibody QB11718 (antibody, V domains shown)
VH: QVQLVQSGPEVKKPGSSVKVSCKASGYIFTDYAMHWVRQRPGQDLEWMGTFIPLLDTSDYNQNFKGRATITADKSTSTAYMELSSLRSEDTAVYYCARMGVTHSYVMDAWGQGTLVTVSS
VL: EIVLTQSPGTLSLSPGERATLSCRASQHISRSVHWYQQKPGEAPRLLIYFASQSISGIPDRFSGSGSGTDFTLTISRLESEDFAVYYCQQSYSFPYTFGRGTKVEIKR
notes: QB11237 altered for MabPair production; alterations are in the entries; also called lead anti-hTSLP antibody QB11718

fold lower binding affinity against QB10985 [30]: ~3 fold
IC50, inhibition of TSLP-induced proliferation of BaF3 cells expressing hTSLPR/hIL-7Rα (CellTiter-Glo, RLU); stimulus hTSLP QB11630 [6]: 0.1 nM
IC50, inhibition of TSLP-induced proliferation of BaF3 cells expressing hTSLPR/hIL-7Rα (CellTiter-Glo, RLU); stimulus hTSLP QB11631 [7]: 0.17 nM
IC50, inhibition of TSLP-induced proliferation of BaF3 cells expressing hTSLPR/hIL-7Rα (CellTiter-Glo, RLU); stimulus cyTSLP QB11632 [8]: 0.34 nM
IC50, inhibition of TSLP-induced proliferation of BaF3 cells expressing hTSLPR/hIL-7Rα (CellTiter-Glo, RLU); stimulus cyTSLP QB11633 [9]: 0.12 nM
IC50, inhibition of TSLP-induced proliferation of BaF3 cells expressing hTSLPR/hIL-7Rα (CellTiter-Glo, RLU); stimulus native hTSLP from healthy donor 1 [10]: 0.012 nM
IC50, inhibition of TSLP-induced proliferation of BaF3 cells expressing hTSLPR/hIL-7Rα (CellTiter-Glo, RLU); stimulus native hTSLP from healthy donor 2 [11]: 0.012 nM
Kd [21]: 0.154 nM
koff [21]: 0.000196 s⁻¹
kon [21]: 1.27e+06 M⁻¹ s⁻¹
Kd [22]: 0.0595 nM
koff [22]: 0.000192 s⁻¹
kon [22]: 3.23e+06 M⁻¹ s⁻¹
Kd [23]: 0.004 nM
koff [23]: 0.000142 s⁻¹
kon [23]: 3.56e+07 M⁻¹ s⁻¹
Kd [25]: 1.27 nM
koff [25]: 0.000174 s⁻¹
kon [25]: 137000 M⁻¹ s⁻¹
Kd [26]: 0.131 nM
koff [26]: 0.000132 s⁻¹
kon [26]: 1.01e+06 M⁻¹ s⁻¹
B3: anti-hTSLP IgG1-D265A antibody QB11764 (antibody, V domains shown)
VH: EVQLVESGGGLVQPGGSLRLSCAASGFDFSSYWISWVRQAPGKRPEWIASIDIDIDIADYASWAKGRFTISRDNSKNTLYLQMNSLRAEDTAVYYCVRNLGLWGPGTLVTVSS
VL: DIQMTQSPSSLSASVGDRVTITCQSSQNVYDKDALAWYQHKPGKRPKLLIYEASRLASGVPSRFSGSGSGTHFTLTISSLQPEDAATYYCAGTRIDNIYTFGDGTKVEIKR
notes: QB11548 altered for MabPair production; alterations are in the entries; also called lead anti-hTSLP antibody QB11764
